From IntAct's records for PubMed 11545742

B1: DNA polymerase eta (Saccharomyces cerevisiae), Q04049 (parent)
chain: MSKFTWKELIQLGSPSKAYESSLACIAHIDMNAFFAQVEQMRCGLSKEDPVVCVQWNSIIAVSYAARKYGISRMDTIQEALKKCSNLIPIHTAVFKKGEDFWQYHDGCGSWVQDPAKQISVEDHKVSLEPYRRESRKALKIFKSACDLVERASIDEVFLDLGRICFNMLMFDNEYELTGDLKLKDALSNIREAFIGGNYDINSHLPLIPEKIKSLKFEGDVFNPEGRDLITDWDDVILALGSQVCKGIRDSIKDILGYTTSCGLSSTKNVCKLASNYKKPDAQTIVKNDCLLDFLDCGKFEITSFWTLGGVLGKELIDVLDLPHENSIKHIRETWPDNAGQLKEFLDAKVKQSDYDRSTSNIDPLKTADLAEKLFKLSRGRYGLPLSSRPVVKSMMSNKNLRGKSCNSIVDCISWLEVFCAELTSRIQDLEQEYNKIVIPRTVSISLKTKSYEVYRKSGPVAYKGINFQSHELLKVGIKFVTDLDIKGKNKSYYPLTKLSMTITNFDIIDLQKTVVDMFGNQVHTFKSSAGKEDEEKTTSSKADEKTPKLECCKYQVTFTDQKALQEHADYHLALKLSEGLNGAEESSKNLSFGEKRLLFSRKRPNSQHTATPQKKQVTSSKNILSFFTRKK

Variants of: B1
Settings: with pcna_yeast POL30, P15873
Chain of pcna_yeast POL30, P15873 (P15873 whole entry): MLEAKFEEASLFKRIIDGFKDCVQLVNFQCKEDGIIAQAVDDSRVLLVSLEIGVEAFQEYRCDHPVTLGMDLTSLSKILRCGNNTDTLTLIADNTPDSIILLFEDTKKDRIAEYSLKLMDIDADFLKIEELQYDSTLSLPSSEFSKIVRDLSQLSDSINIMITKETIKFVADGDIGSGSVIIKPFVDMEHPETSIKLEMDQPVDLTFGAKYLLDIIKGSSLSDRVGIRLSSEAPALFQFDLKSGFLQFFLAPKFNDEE

effect of a mutation on the interaction	Variant
decreasing interaction	F627A;F628A
